Paper PMC6615629, “Hsp70-nucleotide exchange factor (NEF) Fes1 has non-NEF roles in degradation of gluconeogenic enzymes and cell wall integrity” (PLoS Genetics, 2019)

B1: His6-Fbp1 (enzyme, yeast (S. cerevisiae), UniProt P09201 1-348, looked up)
chain: MPTLVNGPRRDSTEGFDTDIITLPRFIIEHQKQFKNATGDFTLVLNALQFAFKFVSHTIRRAELVNLVGLAGASNFTGDQQKKLDVLGDEIFINAMRASGIIKVLVSEEQEDLIVFPTNTGSYAVCCDPIDGSSNLDAGVSVGTIASIFRLLPDSSGTINDVLRCGKEMVAACYAMYGSSTHLVLTLGDGVDGFTLDTNLGEFILTHPNLRIPPQKAIYSINEGNTLYWNETIRTFIEKVKQPQADNNNKPFSARYVGSMVADVHRTFLYGGLFAYPCDKKSPNGKLRLLYEAFPMAFLMEQAGGKAVNDRGERILDLVPSHIHDKSSIWLGSSGEIDKFLDHIGKSQ
notes: Fbp1, yeast gluconeogenic enzyme; the initiator methionine is present in the purified protein and is counted as residue 1; also called wild type His6-Fbp1; not shown: His6, N-terminal, kept

Experiments:
Assay in all cases: pull-down; His6-Fbp1 (wild type or mutant) pulled down on Talon metal affinity resin; reactions with two or all three proteins; 6 μg each of His6-Fbp1 (1.6 μM), Hsp70 (0.9 μM) and GST-Fes1 (1.09 μM), with or without ATP, ADP or AMP (2.5 mM); 50 mM Tris-HCl pH 7.5, 150 mM NaCl, 2% glycerol, 5 mM MgCl2; 30 min at 4°C; washed with 5 mM imidazole, eluted with 250 mM imidazole; stained SDS-PAGE gels, bands quantified …
Settings in all cases: both partners purified
Ssa1 = target: T1, Ssa1 (yeast (S. cerevisiae), UniProt P10591 1-642)
T1 construct: Ssa1, yeast cytosolic Hsp70; non-tagged; also called Hsp70; source: E. coli Rosetta 2(DE3), purified as described [51]
T1 sequence (P10591 whole entry): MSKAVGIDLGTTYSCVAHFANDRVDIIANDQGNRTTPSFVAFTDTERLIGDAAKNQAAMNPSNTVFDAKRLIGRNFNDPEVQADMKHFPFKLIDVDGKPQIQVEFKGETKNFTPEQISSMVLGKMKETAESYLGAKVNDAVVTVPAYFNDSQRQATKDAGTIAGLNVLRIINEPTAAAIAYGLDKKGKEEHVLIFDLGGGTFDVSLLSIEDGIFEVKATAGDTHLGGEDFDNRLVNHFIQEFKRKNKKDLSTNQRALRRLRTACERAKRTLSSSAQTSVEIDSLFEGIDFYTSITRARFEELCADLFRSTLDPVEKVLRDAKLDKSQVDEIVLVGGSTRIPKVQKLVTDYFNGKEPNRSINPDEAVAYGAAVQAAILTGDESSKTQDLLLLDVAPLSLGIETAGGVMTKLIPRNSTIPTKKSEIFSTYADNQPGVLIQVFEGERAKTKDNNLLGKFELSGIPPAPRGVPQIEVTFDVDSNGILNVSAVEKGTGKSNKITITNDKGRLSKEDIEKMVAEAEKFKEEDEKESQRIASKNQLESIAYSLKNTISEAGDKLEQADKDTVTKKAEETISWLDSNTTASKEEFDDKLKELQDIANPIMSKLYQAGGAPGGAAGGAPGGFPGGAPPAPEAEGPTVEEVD

Ssa2 = target: T2, Ssa2 (yeast (S. cerevisiae), UniProt P10592 1-639)
T2 construct: Ssa2, yeast cytosolic Hsp70; non-tagged; also called Hsp70; source: E. coli Rosetta 2(DE3), purified as described [51]
T2 sequence (P10592 whole entry): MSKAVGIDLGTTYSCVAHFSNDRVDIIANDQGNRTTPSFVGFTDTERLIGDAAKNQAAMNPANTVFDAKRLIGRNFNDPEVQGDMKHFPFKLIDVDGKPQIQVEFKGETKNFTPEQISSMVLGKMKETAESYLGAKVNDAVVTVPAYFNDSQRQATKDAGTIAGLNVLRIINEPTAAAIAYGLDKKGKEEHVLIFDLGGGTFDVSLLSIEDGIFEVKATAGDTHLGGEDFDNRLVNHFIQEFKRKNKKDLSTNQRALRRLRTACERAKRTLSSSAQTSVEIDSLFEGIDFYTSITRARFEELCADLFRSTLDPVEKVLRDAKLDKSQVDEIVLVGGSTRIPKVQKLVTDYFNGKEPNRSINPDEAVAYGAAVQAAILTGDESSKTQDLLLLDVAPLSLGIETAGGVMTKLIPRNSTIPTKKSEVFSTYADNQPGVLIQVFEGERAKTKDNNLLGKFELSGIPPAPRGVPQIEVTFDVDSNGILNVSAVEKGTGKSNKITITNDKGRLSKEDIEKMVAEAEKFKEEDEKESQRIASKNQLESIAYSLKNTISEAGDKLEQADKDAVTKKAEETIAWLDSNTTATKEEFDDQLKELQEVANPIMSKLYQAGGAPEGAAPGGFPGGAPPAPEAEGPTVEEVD

His6-Fbp1 = target: B1

Row | binding result (Ssa1) | binding result (Ssa2) | Binder | also measured
1 | binds | binds | His6-Fbp1ΔP2 (enzyme, yeast (S. cerevisiae), UniProt P09201 1-348, looked up, Fbp1, yeast gluconeogenic enzyme, proline 2 deleted; the initiator methionine is counted as residue 1; also called Fbp1P2Δ; source: E. coli expression, purified; not shown: His6, N-terminal, kept) MTLVNGPRRDSTEGFDTDIITLPRFIIEHQKQFKNATGDFTLVLNALQFAFKFVSHTIRRAELVNLVGLAGASNFTGDQQKKLDVLGDEIFINAMRASGIIKVLVSEEQEDLIVFPTNTGSYAVCCDPIDGSSNLDAGVSVGTIASIFRLLPDSSGTINDVLRCGKEMVAACYAMYGSSTHLVLTLGDGVDGFTLDTNLGEFILTHPNLRIPPQKAIYSINEGNTLYWNETIRTFIEKVKQPQADNNNKPFSARYVGSMVADVHRTFLYGGLFAYPCDKKSPNGKLRLLYEAFPMAFLMEQAGGKAVNDRGERILDLVPSHIHDKSSIWLGSSGEIDKFLDHIGKSQ | 
2 | binds | binds | His6-Fbp1 P2A (enzyme, yeast (S. cerevisiae), UniProt P09201 1-348, looked up, Fbp1, yeast gluconeogenic enzyme, P2A; the initiator methionine is counted as residue 1; source: E. coli expression, purified; not shown: His6, N-terminal, kept) MATLVNGPRRDSTEGFDTDIITLPRFIIEHQKQFKNATGDFTLVLNALQFAFKFVSHTIRRAELVNLVGLAGASNFTGDQQKKLDVLGDEIFINAMRASGIIKVLVSEEQEDLIVFPTNTGSYAVCCDPIDGSSNLDAGVSVGTIASIFRLLPDSSGTINDVLRCGKEMVAACYAMYGSSTHLVLTLGDGVDGFTLDTNLGEFILTHPNLRIPPQKAIYSINEGNTLYWNETIRTFIEKVKQPQADNNNKPFSARYVGSMVADVHRTFLYGGLFAYPCDKKSPNGKLRLLYEAFPMAFLMEQAGGKAVNDRGERILDLVPSHIHDKSSIWLGSSGEIDKFLDHIGKSQ | 
3 | binds | binds | His6-Fbp1^P2A,S12A,T13A (enzyme, yeast (S. cerevisiae), UniProt P09201 1-348, looked up, Fbp1, yeast gluconeogenic enzyme, P2A,S12A,T13A; the initiator methionine is counted as residue 1; source: E. coli expression, purified; not shown: His6, N-terminal, kept) MATLVNGPRRDAAEGFDTDIITLPRFIIEHQKQFKNATGDFTLVLNALQFAFKFVSHTIRRAELVNLVGLAGASNFTGDQQKKLDVLGDEIFINAMRASGIIKVLVSEEQEDLIVFPTNTGSYAVCCDPIDGSSNLDAGVSVGTIASIFRLLPDSSGTINDVLRCGKEMVAACYAMYGSSTHLVLTLGDGVDGFTLDTNLGEFILTHPNLRIPPQKAIYSINEGNTLYWNETIRTFIEKVKQPQADNNNKPFSARYVGSMVADVHRTFLYGGLFAYPCDKKSPNGKLRLLYEAFPMAFLMEQAGGKAVNDRGERILDLVPSHIHDKSSIWLGSSGEIDKFLDHIGKSQ | 
4 | binds | binds | B1 | 
5 |  |  | GST-Fes1^A79R,R195A (natural protein, yeast (S. cerevisiae), UniProt P38260 1-290, looked up, Fes1, yeast Hsp70 nucleotide exchange factor, double mutant A79R,R195A; also called Fes1RA; RA; source: E. coli expression, purified; not shown: GST, N-terminal, kept) MEKLLQWSIANSQGDKEAMARAGQPDPKLLQQLFGGGGPDDPTLMKESMAVIMNPEVDLETKLVAFDNFEMLIENLDNRNNIENLKLWEPLLDVLVQTKDEELRAAALSIIGTAVQNNLDSQNNFMKYDNGLRSLIEIASDKTKPLDVRTKAFYALSNLIRNHKDISEKFFKLNGLDCIAPVLSDNTAKPKLKMAAIALLTAYLSSVKIDENIISVLRKDGVIESTIECLSDESNLNIIDRVLSFLSHLISSGIKFNEQELHKLNEGYKHIEPLKDRLNEDDYLAVKYVL | ratio of amounts Fes1^A79R,R195A/Ssa1 pulled down by Fbp1, no nucleotide (His6-Fbp1): 1.7; ratio of amounts Fes1^A79R,R195A/Ssa1 pulled down by Fbp1, with ADP (His6-Fbp1): 5; ratio of amounts Fes1^A79R,R195A/Ssa1 pulled down by Fbp1, with AMP (His6-Fbp1): 3.3; ratio of amounts Fes1^A79R,R195A/Ssa1 pulled down by Fbp1, with ATP (His6-Fbp1): 6.4; ratio of amounts Fes1^A79R,R195A/Ssa2 pulled down by Fbp1, no nucleotide (His6-Fbp1): 2.4; ratio of amounts Fes1^A79R,R195A/Ssa2 pulled down by Fbp1, with ADP (His6-Fbp1): 4.5; ratio of amounts Fes1^A79R,R195A/Ssa2 pulled down by Fbp1, with AMP (His6-Fbp1): 1.9; ratio of amounts Fes1^A79R,R195A/Ssa2 pulled down by Fbp1, with ATP (His6-Fbp1): 4.3
